The assay relates to OMP-Pn4 tumors. Kind of assay: Limiting dilution assay of cancer stem cell frequency in treated OMP-Pn4 tumors. The assay is classed as in vivo, NOD/SCID mice. The conditions noted are these: tumors after 41 days treatment; 30-810 cells re-injected, 75 days; L-Calc. How it is done: Control and treated tumors from the OMP-Pn4 xenograft study described above (Example 7) were harvested at the end of 41 days treatment. The tumors were processed and dissociated into single cells. Tumor cells were then incubated with biotinylated mouse antibodies (α-mouse CD45-biotin 1:200 dilution and rat α-mouse H2 Kd-biotin 1:100 dilution, BioLegend, San Diego, Calif.) on ice for 30 min followed by addition of streptavidin-labeled magnetic beads (Invitrogen, Carlsbad, Calif.) to remove mouse cells. The remaining human cells in the suspension were collected, counted and diluted to appropriate cell doses (30, 90, 270 and 810 cells), mixed in the mixture of 1:1 (v/v) FACS buffer and Matrigel and injected subcutaneously in NOD/SCID mice (10 mice per cell dose per treatment group). Each dot in FIG. 40 represents the tumor volume of an individual mouse. The percentage of mice with detectable tumors was determined in all groups injected with anti-FZD antibody treated tumor cells and compared to the percentage of mice with detectable tumors in the controls. For example, the number of mice injected with 810 control-treated tumor cells that have detectable tumors was determined and compared to the number of mice injected with 810 FZD-antibody treated tumor cells that have detectable tumors. […]

B1: 18R5: human anti-FZD antibody; VH SEQ ID NO:10 (as 18R8), VL SEQ ID NO:14; binds FZD1, 2, 5, 7, 8 (antibody, V domains shown)
VH: EVQLVESGGGLVQPGGSLRLSCAASGFTFSHYTLSWVRQAPGKGLEWVSVISGDGSYTYYADSVKGRFTISSDNSKNTLYLQMNSLRAEDTAVYYCARNFIKYVFANWGQGTLVTVSS
VL: DIELTQPPSVSVAPGQTARISCSGDNIGSFYVHWYQQKPGQAPVLVIYDKSNRPSGIPERFSGSNSGNTATLTISGTQAEDEADYYCQSYANTLSLVFGGGTKLTVLG
modifications: 18R5/18R8 heavy chain variable region (VH); 18R5 light chain variable region (VL)
Take B1: the “cancer stem cell frequency” value is “reduced cancer stem cell frequency”.

The values are drawn from patent publication US8975044B2, “Polynucleotides encoding for frizzled-binding agents and uses thereof” (OncoMed Pharmaceuticals, Inc., priority 2008, dated 2015).
